{"source": "patent US20130034597A1", "about": "“ORALLY BIOAVAILABLE PEPTIDE DRUG COMPOSITIONS AND METHODS THEREOF” (AEGIS THERAPEUTICS LLC, priority 2011, published 2013)", "key": {"[1]": {"assay": "Clinical signs during the TEEE pharmacokinetic study", "type": "in vivo, Male Sprague-Dawley rats", "conditions": "oral (2.5-10 mg/kg capsules) or intravenous (0.1, 1 mg/kg) administration, rats", "description": "Male Sprague-Dawley rats are ca 8-9 week old at onset of treatment (weight at onset of treatment, 348-398 g). Animals are allocated into groups of 3 rats/group. Immediately following arrival, animals are uniquely identified via an eartag. Animals are purchased from Charles River Canada (St-Constant, Canada). Following an examination by a qualified In-Life Specialist (including body weight determination), animals are acclimated to the testing facilities for ca 72 hr prior to test article administration. Room conditions are: temperature ca 20° C., humidity ca 50%. Animals are housed in solid bottom polycarbonate cages equipped with a filter top to avoid contamination, fed with standard certified rodent food (brand and lot no. to be documented in the raw data). The animals had continuous access to RO/UV water, via bottles. All rats are administered the compounds intravenously (Groups 1 and 2) in a jugular vein under light isoflurane anesthesia or orally by capsule (one per animal) using a specially designed capsule delivery tube (Groups 3-14). The dose volume is 5.0 ml/kg for groups 1 and 2 and one capsule/animal for Groups 3 to 14. Prior to dosing, each animal is weighed and the weight recorded. […] Plasma concentrations of each compound are determined using an LCMS assay (non-GLP) with an analytical range of ca 25-1000 ng/mL. […]"}, "[2]": {"assay": "Maximum water solubility of TEEE", "type": "physicochemical", "protocol": "The compound described is a selective IL-23 receptor antagonist peptide comprising D-amino acids with the formula cyclo-D-[…] (SEQ ID NO: 3), where any amino acid is a D-amino acid, MW: ca. 1039, hereafter designated TEEE, supplied by Allostera Pharma as a dry powder, and is formulated for intravenous at 0.02 and 0.2 mg/mL in sterile saline by dilution of an initial stock prepared at 2 mg/mL. Additionally, 4 different formulations of dry TEEE are prepared in gelatin capsules. For each type of dry formulation 10 capsules are prepared to contain enough test article in a way to deliver ca 2.5, 5.0 or 10 mg/kg. […] Solutions and capsules are stored at ca 4° C. upon until dose administration. The intravenous formulation is kept at room temperature pending dose administration. The final appearance of the intravenous formulations consists of clear solutions."}, "[3]": {"target": "somatostatin receptor (SSTR) subtype 2 (Homo sapiens, UniProt P30874)", "sequence (P30874 whole entry)": "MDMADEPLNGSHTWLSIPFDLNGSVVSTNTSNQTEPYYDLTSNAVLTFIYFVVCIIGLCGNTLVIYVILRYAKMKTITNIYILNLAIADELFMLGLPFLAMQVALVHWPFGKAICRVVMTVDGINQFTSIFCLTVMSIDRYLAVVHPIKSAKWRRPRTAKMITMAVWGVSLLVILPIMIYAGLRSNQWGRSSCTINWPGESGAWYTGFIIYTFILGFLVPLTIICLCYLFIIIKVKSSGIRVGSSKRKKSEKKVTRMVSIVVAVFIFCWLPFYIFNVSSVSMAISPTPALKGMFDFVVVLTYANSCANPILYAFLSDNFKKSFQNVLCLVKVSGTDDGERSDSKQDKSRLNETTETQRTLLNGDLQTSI", "conditions": "cited from earlier work"}, "[4]": {"conditions": "intranasal delivery; cited from earlier work"}}, "note": "Positions of bridges follow the written chain, without caps; N, C: chain ends. Non-standard residues stand in square brackets, D forms with d. Residues, ends and D or L forms follow the SMILES beside them. d2Nal = N[C@H](Cc1ccc2ccccc2c1)C(=O)O"}
{"molecule": "cyclo-D-TEEEQQYL (cyclo([dT][dE][dE][dE][dQ][dQ][dY][dL]); SMILES CC(C)C[C@H]1NC(=O)[C@@H](Cc2ccc(O)cc2)NC(=O)[C@@H](CCC(N)=O)NC(=O)[C@@H](CCC(N)=O)NC(=O)[C@@H](CCC(=O)O)NC(=O)[C@@H](CCC(=O)O)NC(=O)[C@@H](CCC(=O)O)NC(=O)[C@@H]([C@H](C)O)NC1=O)", "values": [{"measurement": "clinical signs", "setting": "[1]", "value": "No clinical signs"}, {"measurement": "maximum water solubility", "setting": "[2]", "value": "approximately 10 mg/mL"}]}
{"molecule": "CC(C)[C@@H]1NC(=O)[C@H](CCCCN)NC(=O)[C@@H](Cc2c[nH]c3ccccc23)NC(=O)[C@H](Cc2ccc(O)cc2)NC(=O)[C@H](NC(=O)[C@H](N)Cc2ccc3ccccc3c2)CSSC[C@H](C(=O)N[C@H](C(N)=O)[C@@H](C)O)NC1=O", "note": "[lanreotide, (4S,7S,10S,13R,16S,19S)-10-(4-aminobutyl)-19-[[(2R)-2-amino-3-naphthalen-2-yl-propanoyl]amino]-N-[(1S,2R)-1-carbamoyl-2-hydroxy-propyl]-16-[(4-hydroxyphenyl)methyl]-13-(1H-indol-3-ylmethyl)-6,9,12,15,18-pentaoxo-7-propan-2-yl-1,2-dithia-5,8,11,14,17-pentazacycloicosane-4-carboxamide] (H-[d2Nal][dC]Y[dW]KV[dC]T-NH2; disulfide 2-7)", "values": [{"measurement": "binding affinity", "setting": "[3]", "value": "high"}]}
{"molecule": "calcitonin", "values": [{"measurement": "average bioavailability", "setting": "[4]", "value": "about 3%"}]}
